According to article PMC10483886 (Molecular cell, 2023):

Biological target: T1, His-Flag-DBR1 (human, UniProt Q9UK59 1-544)
T1 sequence (looked up): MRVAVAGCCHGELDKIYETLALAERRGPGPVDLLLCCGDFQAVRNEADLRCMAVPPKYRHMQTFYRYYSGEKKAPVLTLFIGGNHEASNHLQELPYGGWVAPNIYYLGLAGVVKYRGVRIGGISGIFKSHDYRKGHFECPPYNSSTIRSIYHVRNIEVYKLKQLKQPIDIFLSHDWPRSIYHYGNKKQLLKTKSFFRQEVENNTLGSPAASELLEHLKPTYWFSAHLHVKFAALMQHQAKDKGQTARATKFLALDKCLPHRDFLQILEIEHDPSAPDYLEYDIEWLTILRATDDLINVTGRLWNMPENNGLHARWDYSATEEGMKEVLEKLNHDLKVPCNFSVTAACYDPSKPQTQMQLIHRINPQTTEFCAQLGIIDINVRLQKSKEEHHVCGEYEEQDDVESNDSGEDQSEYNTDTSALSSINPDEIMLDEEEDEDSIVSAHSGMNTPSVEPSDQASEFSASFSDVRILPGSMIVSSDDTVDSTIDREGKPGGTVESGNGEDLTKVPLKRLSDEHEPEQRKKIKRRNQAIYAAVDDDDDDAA
Experiment: pull-down

B1: GST-TTDN1 (natural protein, human, UniProt Q8TAP9 1-179, looked up)
chain: MQRQNFRPPTPPYPGPGGGGWGSGSSFRGTPGGGGPRPPSPRDGYGSPHHTPPYGPRSRPYGSSHSPRHGGSFPGGRFGSPSPGGYPGSYSRSPAGSQQQFGYSPGQQQTHPQGSPRTSTPFGSGRVREKRMSNELENYFKPSMLEDPWAGLEPVSVVDISQQYSNTQTFTGKKGRYFC
Q: Does B1 bind?
A: Result: binds
